# Assay results from PMC5056459, “Antagonistic roles of Drosophila Tctp and Brahma in chromatin remodelling and stabilizing repeated sequences” (Nature Communications, 2016).
# Molecular target: T1, GST-Brm 304-747 (Drosophila, UniProt P25439 304-747)
# T1 construct: in pGEX5X-1; also called middle part of Brm protein; source: E. coli Rosetta2, extracted and dialysed
# Experiment: pull-down; GST-Brm fragments as baits, MBP-Tctp as prey, 5 micrograms each; PDB (20 mM Tris-HCl pH 7.5, 150 mM NaCl, 0.5 mM EDTA, 10% glycerol, 0.1% Triton X-100, 1 mM DTT) with 0.2% BSA, 2-3 h at 4 °C; western blot with anti-GST and anti-MBP; proteins extracted from E. coli and dialysed
# Settings: both partners purified
# T1 sequence (P25439 304-747): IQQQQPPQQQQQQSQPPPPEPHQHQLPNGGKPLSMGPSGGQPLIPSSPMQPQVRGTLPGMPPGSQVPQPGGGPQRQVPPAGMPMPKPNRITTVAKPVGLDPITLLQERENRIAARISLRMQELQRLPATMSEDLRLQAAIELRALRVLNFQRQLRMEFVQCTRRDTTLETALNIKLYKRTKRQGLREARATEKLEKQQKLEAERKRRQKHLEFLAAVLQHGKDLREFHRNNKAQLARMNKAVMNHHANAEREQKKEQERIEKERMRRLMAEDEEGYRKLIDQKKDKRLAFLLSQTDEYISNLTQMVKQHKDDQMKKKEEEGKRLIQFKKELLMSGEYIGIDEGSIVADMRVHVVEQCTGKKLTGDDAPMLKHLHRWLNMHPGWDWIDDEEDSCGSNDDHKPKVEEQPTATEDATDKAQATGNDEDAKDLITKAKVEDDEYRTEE
binder,measurement,value
"MBP-Tctp (natural protein, Drosophila, UniProt Q9VGS2 1-172, looked up, Drosophila Tctp in pMAL-c2; also called MBP-tagged Tctp; source: E. coli Rosetta2, extracted and dialysed) MKIYKDIITGDEMFADTYKMKLVDDVIYEVYGKLITRQGDDIKLEGANASAEEADEGTDITSESGVDVVLNHRLTECFAFGDKKSYTLYLKDYMKKVLAKLEEKSPDQVDIFKTNMNKAMKDILGRFKELQFFTGESMDCDGMVALVEYREINGDSVPVLMFFKHGLEEEKC",binding result,binds
